Source: article PMC11004729

What was measured:
HuR (GST-HuR) = HuR (GST-HuR) (UniProt Q15717 1-326); assay: EMSA
FXR1 (GST-FXR1) [1] = target: T1, FXR1 (GST-FXR1) (Homo sapiens, UniProt P51114 1-621); assay: EMSA
FXR1 (GST-FXR1) [2] = target: T1, FXR1 (GST-FXR1); assay: EMSA; remark: listed apart in the source
FXR1 (GST-FXR1) [3] = target: T1, FXR1 (GST-FXR1); assay: competition EMSA

T1 sequence (P51114 whole entry): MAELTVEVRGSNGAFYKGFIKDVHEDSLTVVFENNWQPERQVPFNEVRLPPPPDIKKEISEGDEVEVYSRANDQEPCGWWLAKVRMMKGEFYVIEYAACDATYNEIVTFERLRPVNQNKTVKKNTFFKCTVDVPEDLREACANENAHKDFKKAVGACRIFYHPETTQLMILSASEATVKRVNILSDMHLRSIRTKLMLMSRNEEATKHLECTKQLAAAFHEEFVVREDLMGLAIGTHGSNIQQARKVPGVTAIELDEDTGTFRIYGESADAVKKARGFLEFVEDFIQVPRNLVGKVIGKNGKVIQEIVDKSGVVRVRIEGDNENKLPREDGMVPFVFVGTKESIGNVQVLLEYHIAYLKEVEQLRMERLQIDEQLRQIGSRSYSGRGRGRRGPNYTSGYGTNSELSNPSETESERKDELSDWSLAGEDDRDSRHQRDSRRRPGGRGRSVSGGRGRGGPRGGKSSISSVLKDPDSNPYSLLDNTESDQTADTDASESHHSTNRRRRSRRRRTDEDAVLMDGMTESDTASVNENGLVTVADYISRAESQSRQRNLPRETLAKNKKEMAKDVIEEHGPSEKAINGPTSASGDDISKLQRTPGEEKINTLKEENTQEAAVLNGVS
HuR (GST-HuR), sequence (Q15717 whole entry): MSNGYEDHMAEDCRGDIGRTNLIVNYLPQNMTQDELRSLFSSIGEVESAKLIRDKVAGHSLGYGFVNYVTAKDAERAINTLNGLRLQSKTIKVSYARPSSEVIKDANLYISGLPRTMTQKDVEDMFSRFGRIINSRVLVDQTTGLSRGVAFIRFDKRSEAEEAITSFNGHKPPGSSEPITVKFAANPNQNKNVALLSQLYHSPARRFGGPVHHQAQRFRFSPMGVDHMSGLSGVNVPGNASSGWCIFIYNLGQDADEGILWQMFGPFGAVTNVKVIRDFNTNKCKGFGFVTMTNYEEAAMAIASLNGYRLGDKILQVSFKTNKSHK

CUUGUGAUUAUUUAUUAUUUAUUUAUUAUUUAUUUAUUUACAGAGAUGAA (ssRNA) [TNFα 3'UTR 50-mer (probe A)]
binding result (HuR (GST-HuR)): binds
binding result (FXR1 (GST-FXR1) [1]): binds

AUUUA (ssRNA) [AUUUA monomer]
binding result (FXR1 (GST-FXR1) [2]): no binding

AUUUAAUUUAAUUUAAUUUAAUUUA (ssRNA) [(AUUUA)5 (probe B)]
binding result (FXR1 (GST-FXR1) [3]): binds

UUAUUUAUUUUAUUUAUUUUAUUUAUU (ssRNA) [(UUAUUUAUU)3 (probe C)]
binding result (FXR1 (GST-FXR1) [3]): binds
